Laboratory results: the supplement of paper PMC10567573

B1: ACBD3 (parent)
chain: YVASHKIEKEEQEKKRKEEEERRR
B2: INTS4 (parent)
chain: TIIEPAGESDNPLRFTSGLVVALD

Variants of: B1
Test: protein stability index of a GFP-peptide fusion (GPS, HEK-293T) (PSI 1-6); higher = more stable
Conditions: c terminus: a fixed tail appended
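Note: lentivirally expressed fusions sorted by FACS into six bins by GFP to DsRed ratio, PSI derived from sequencing read proportions per bin multiplied by bin number.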

Protein stability index: each site, then its substitutions
S4: Y 2.49
K9: Y 2.28; S 2.78; A 3.03; M 2.8
H5: W 2; L 2.82; T 3
E18: I 2.42
E21: T 2.38; L 2.28; G 2.03
Y1: D 5.55; I 5; W 5.65; R 5.49; S 5.5
K6: C 2.98
E13: Q 2; W 2.81
R23: V 2.65
R24: M 2.65; V 3.46; E 2.19
E8: K 2.57; G 2.49; I 2.16
V2: Y 4.75; W 4.93; C 4.4
R16: K 2.92; H 2.4
Q12: G 2.88; Y 2.67; L 2.78; N 2.18; F 1.96
E19: L 2.39; F 2.68
R22: T 3.28; A 2.45; P 2.72
E10: H 1.66; T 2.08
K15: F 2.06; A 3.27
K17: R 3.32; P 3.01; N 2.99

Variants of: B2
Test: as above
Conditions: c terminus: a fixed tail appended

Protein stability index: each site, then its substitutions
L19: P 3.72; Q 4.05; Y 2.62; A 4.01; T 4.16; V 3.33; R 4.01; M 2.83; D 4.96; G 4.16; K 4.27; F 2.38; N 4.11; W 1.98; S 4.77; H 3.59; C 3.95; E 4.34; I 2.71
A22: L 1.73; D 3.8; R 2.93; W 1.87; F 2.03; P 3.58; T 2.78; K 3.21; C 2.6; S 3.2; Q 2.65; Y 2.45; V 1.95; N 3.18; G 2.85; I 1.61; H 2.78; M 2.26; E 4.07
V21: N 3.63; W 2.16; K 3.45; A 3.36; D 4.92; Q 3.71; T 3.67; R 3.67; S 3.51; P 3.93; L 2.89; Y 3; G 3.65; E 4.5; F 2.37; I 2.78; H 3.27; M 2.84; C 3.48
L23: A 4.1; N 4.1; K 4.07; R 3.6; S 4.35; F 2.75; C 3.62; V 3.1; G 4.16; Q 4.56; D 4.53; I 2.4; T 3.92; E 4.4; W 2.97; M 3.26; Y 3.29; P 4.17; H 3.81
D24: N 2.12; T 2.2; W 2.4; P 2.31; A 2.75; K 2.19; I 1.33; H 1.93; Q 2.29; G 2.51; Y 2.31; C 1.35; L 1.73; E 2.38; F 4.12; M 1.98; V 2.33; R 1.9; S 2.06
V20: M 2.59; H 3.28; P 4.23; N 3.46; R 3.38; Q 3.91; Y 2.44; K 3.75; D 4.38; A 2.95; I 2.73; W 2.68; L 2.53; S 3.77; T 3.82; E 4.03; C 3.38; G 3.76; F 2.31
G18: V 2.15; W 2.09; T 2.51; Y 1.89
